Literature values as cited in publication PMC3496038.

Assays:
[1] = target: GluA1 NTD (Rattus norvegicus) (UniProt P19490); assay: analytical ultracentrifugation
[2] = target: GluA3 NTD (Rattus norvegicus) (UniProt P19492); assay: analytical ultracentrifugation

Row | Kd [1] | Kd [2] | Substance
1 | 100 nM |  | GluA1 NTD (from UniProt P19490)
2 |  | 1000 nM | GluA3 NTD (from UniProt P19492)
